Assay results from patent publication US20240148892A1.

How the values were obtained:
[1] = biological target: human full-length B7H3 expressed on MCF-7 cells (human) (UniProt Q5ZPR3); assay: cell-based or functional assay
[2] = biological target: human full-length B7H3 expressed on MCF-7 cells (human) (UniProt Q5ZPR3); assay: flow cytometry (FACS) on MCF-7 cells expressing human full-length B7H3; negative control
[3] = biological target: cynomolgus monkey B7H3 on transfected FlpinCHO cells (cynomolgus monkey); assay: flow cytometry (FACS) on FlpinCHO cells transfected with cynomolgus monkey B7H3; negative control

Sequence of human full-length B7H3 expressed on MCF-7 cells (human) (Q5ZPR3 29-534 limits assumed): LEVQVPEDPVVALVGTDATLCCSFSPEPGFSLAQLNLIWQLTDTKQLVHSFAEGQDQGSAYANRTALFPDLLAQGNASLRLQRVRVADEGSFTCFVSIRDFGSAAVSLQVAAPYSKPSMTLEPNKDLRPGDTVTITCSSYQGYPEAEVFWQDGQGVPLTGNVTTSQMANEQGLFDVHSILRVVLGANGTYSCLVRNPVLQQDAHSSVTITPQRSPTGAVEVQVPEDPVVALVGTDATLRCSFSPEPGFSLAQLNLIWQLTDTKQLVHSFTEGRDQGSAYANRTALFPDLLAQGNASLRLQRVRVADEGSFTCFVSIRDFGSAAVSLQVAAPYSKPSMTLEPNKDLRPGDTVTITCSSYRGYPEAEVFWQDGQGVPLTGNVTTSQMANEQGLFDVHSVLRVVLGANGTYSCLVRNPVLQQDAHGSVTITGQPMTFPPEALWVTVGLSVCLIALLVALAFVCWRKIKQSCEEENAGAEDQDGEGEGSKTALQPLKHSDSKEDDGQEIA

- Antibody internalization Maximum MFI, MCF-7 cells, high-content imaging (negative control) [1]: 21 MFI
- Maximum MFI [2]: 47.8 MFI
- Maximum MFI [3]: 6.67 MFI
Substance: hIgG1 isotype (antibody)
